From PMC11082164

Target: recombinant human full-length BIN1 isoform 8 (human)

With “recombinant ezrin T567D (from UniProt P15311 1-586) (natural protein)” the relative membrane binding of Alexa488-ezrin-T567D on supported lipid bilayers with 5% PI(4,5)P2 in the presence of 0.1 µM BIN1 iso8, normalized to ezrin-T567D without BIN1 (confocal intensity) was 1.5 fold.

“recombinant ezrin wild-type (from UniProt P15311 1-586) (natural protein)” gave a relative membrane binding of Alexa488-ezrin on supported lipid bilayers with 5% PI(4,5)P2 in the presence of 0.1 µM BIN1 iso8, normalized to ezrin without BIN1 (confocal intensity) of 2.5 fold.
